Results as given in the DeepSol protein solubility set.

test: soluble on expression in E. coli; label from the status in PepcDB or PDB records

Sequence | soluble on expression in E. coli
MIENHLYSLVTVVKYKLLPCLLAIFLTGCDRTEVTLSFTPEMASFSNEFDFDPLRGPVKDFTQTLMDEQGEVTKRVSGTLSEEGCFDSLELLDLENNTVVALVLDANYYRDAETLEKRVRLQGKCQLAELPSAGVSWETDDNGFVIKASSKQMQMEYRYDDQGYPLGKTTKSNDKTLSVSATPSTDPIKKLDYTAVTLLNNQRVGNVKQSCEYDSHANPVDCQLIIVDEGVKPAVERVYTIKNTIDYY | not soluble
MIFEVPIDHFPASSQQVSKTREHKPLRLSTVSLHSKEVNAAVAPLSPSVRRSQFNFSSEVTKSALPKVRASIPPLKRALTSPALPVQHLNLNLVRKGSNPSSQTSRNNSVTDLLKSELFKMPSRLLSTAVSLHQLA | not soluble
MIFMNMVNRERELQALKKRLSSNDLELIIIYGRRRIGKTFLIINAVNGYDFIYYLATEKNNLRKFKELTESKYEDIKYVKEDWEAIFHYLRDKIIIIDEFPYMIKEDESILSTFQKIVDETLKGSKTKLILLGSSISMMEDAISYKSPLYGRRTASIELKELKFKDLKGFNFSLIDAIHVYGFAGGVPFYLTKAKTPFLKWINAELKEVDSFIKDEIDFMLRYEFSEIGTYKEILHAISSGKNTLGEIKDFVRISGDVSSYLNKLEKIGIIGKEFPYKMKKGARYYIKDNFTLFWFTFIYPNLSLIEEGIYEIKEDEYNVYLGRIFEKIAREYVEDVYKVKVERLWFKDVEIDIYGDGIAGECKWSEGINGEKVLYELKRKVEDLGLDVKKYIIFAKSFSKTNEEAEFIDLKKLEQWYRTLEHHHHHH | soluble
MIHVILLAAGYSSRFGSNKLLHIVDGTPMYRHALETAEQFRQRYCCEPVRLIFVTAYDDIGKQLREKDGFCLFGAAKAGNTAGRDLVVMNPNSGLGISHSIALGVKAAGADRFQEDDSLMFMVCDQPWLTPGDLLNLAACFKRSGKSIGCMAYGEQTGNPVLFSAVYREELLGLRGDTGGKAIVRRHPKEVCLCPVSNPRALEDMDELQ | not soluble
MIILEKEQKEPNRLIKEKSPYLLQHAYNPVDWYPWGEEAFEKARKENKPVFLSIGYSTCHWCHMMAHESFEDEEVAGLMNEAFVSIKVDREERPDIDNIYMTVCQIILGRGGWPLNIIMTPGKKPFFAGTYIPKNTRFNQIGMLELVPRIKEIWEQQHEEVLDSAEKI | not soluble
MIIPMNNKHPLPTPLVSIIIPVYNVEKYLYRCVKSILSQDYYDYEIILVDDGSTDGSGMICDELTEQHGHISVIHKPNGGQGSARNAGLNHAKGKYIWFIDSDDYISPHSLSVIMSQITQGDFDALFFPYIKSNGNILIGEAVGKYHAGVYRGQQLLLEGLVNMSMCTIVSLRSRWIDNRIFFREDIHFEDFEINPRVLKFLERAIFLDSNIIPYIYYTRLGSTMNQLDPQKRMRQTEDFLRIEKSWKEWFNLDSPEPNSYDMLMLRTGTNMLHRNLLNFVRNSNFSISTKLKLYAQYRKKGVFSWFYNGYRRDPYVGCTSVRVFWNTIGRSYILFSLFSIVEEIWKKIRK | not soluble
MIISDVLYGEFEVDQVVEELISSKSMQRLKGIHQNGASYLMNEKWNVTRFDHSVGVMLLVKKLGGSVKEQIASLLHDVSHTAFSHVIDYVFDNEDESYHEEIFSSVVKNSEIPAILAKHGYNYEDILLDDSKWTLLERSAPELCADRVDYTLRDMYTYGYISLEEVHRFLEDIIAVEGKMVVQSVEMAEWFTETYYKEVIDFFMKPMNIYGNDMLAKTLKLSLHKKVIHADDFLLEDEELISKLQQCNDPEVEALLSKVHPNVKVKEDRNDYDLHQKNKVRLIDPPLLREGKIVQSSVVSENIRQISDIAYEKAVRGMYVKVISN | not soluble
MIISTDLQLLISPMQWDQVASEIAQQLSAVGYNVTDIRAEVIDLTCEPDNMLVNQWQQEHGTIPTSEQLHRVVITGEFDGELRKATECVVRQLPEGSYWYGTSLVGEIEPSVTAACAWQADV | not soluble
MIITIPIKNQKDIGTPSDSVVVLGYFDGIHKGHQELFRVANKAARKDLLPIVVMTFNESPKIALEPYHPDLFLHILNPAERERKLKREGVEELYLLDFSSQFASLTAQEFFATYIKAMNAKIIVAGFDYTFGSDKKTAEDLKNYFDGEVIIVPPVEDEKGKISSTRIRQAILDGNVKEAGKLLGAPLPSRGMVVHGNARGRTIGYPTANLVLLDRTYMPADGVYVVDVEIQRQKYRAMASVGKNVTFDGEEARFEVNIFDFNQDIYGETVMVYWLDRIRDMTKFDSVDQLVDQLKADEEVTRNWS | soluble
MIKIKAIERKAGFGKTSKTLWYPAIHLHSDVKFEEFIELVSDETTVSSADIKAVFDRAAKVLIRLLQDGKSIDCGDMGTYRPSITAKAGSGVDSADKVTVELVDKAKVIYTPRMKVKTALKGVRMERAERVLDVPYASSIKPNENNSGGSSSSDNNGHAGL | not soluble
MIKIVTDNFLYEKEKVLALRYMYDSAKKPGITIITVTNKQKYIKNIMDNFRRCLYPKKEFIIILNDTKLQTSLYKNYFSKTKNLKLFKVDSSYSLGECLNLAISKSNYNYIAKMDDDDYYGSHYILDSMNAFNYTDASIIGKATHFIYFEDRTLLNLWCQGNENTYATSVAGATFVMKKSIFNKVKFNSLNNGEDIDLLSQCNNLGIKIYSCSKFNYVYNRHASPDNHSWKISNDLLVKRSIKLCITKSYKRIVHILEHHHHHH | not soluble
MIKIYNRKTKAYDVEQVAGLKYINWSYASPIGKSFLELFIKKKMFSKLYGNFCDSSLSKKKIKAFIDEFNIDMSLCNKNIDEFENFNDFFARTLTPEARPIDYSENILISPGDGRLSAFENIDLDKVVQIKGYTYSLKELIDDPKVAEEFEGGTCLILRLCPTDYHRFHFVDSGTCSESKKISGFYYSVNPIALNNVSELFCKNKREWSIFNSDNFGEILHVEVGATCVGTILQTYSPEKRVKKGEEKGYFKFGGSTTILFFKKDTIKIDSDIVEQTKLGFETKVNMGETIGHKLEHHHHHH | soluble
MIKNNIKHTWYFGHPQQLVWDYLTKPELLSQWLMESDFQPVAGHTFMFNTKPKVKVGFDGLIYCQVLKVQPDHELEHHHHHH | soluble
MIKPYDFVPFLPYKPYDDVKAERGDGKIPIRVKTLTPVHIPSGEYTVSGDNSMIYKEFVKVNGVPVIPGTSFKGCIRSIAESISYSCLYIFDKQKKELIPEFKLEAQEKDHEKNKEQRNENGKKCIVSDMFGMPGQKSKIVFNDLRGVPNKYKLEIKGIPTSFRPNPDAEYYLENGKYKGYKFYKHGINGIQPKGNMLCEFAAENSLFEGEIIYKNLTEEQIRLLCFSLGLSGDINPKIGYGKNYFYGSIEVTSDAKWVEKAKQYKNIEKDDIKNNINLIISILNYKNAVTSVD | soluble
MIKRYTCPNGVRIVLENNPTVRSVAIGVWIGTGSRHETPEINGISHFLEHMFFKGTSTKSAREIAESFDRIGGQVNAFTSKEYTCYYAKVLDEHANYALDVLADMFFHSTFDENELKKEKNVVYEEIKMYEDAPDDIVHDLLSKATYGNHSLGYPILGTEETLASFNGDSLRQYMHDYYTPDRVVISVAGNISDSFIKDVEKWFGSYEAKGKATGLEKPEFHTEKLTRKKETEQAHLCLGFKGLEVGHERIYDLIVLNNVLGGSMSSRLFQDVREDKGLAYSVYSYHSSYEDSGMLTIYGGTGANQLQQLSETIQETLATLKRDGITSKELENSKEQMKGSLMLSLESTNSKMSRNGKNELLLGKHKTLDEIINELNAVNLERVNGLARQLFTEDYALALISPSGNMPS | not soluble
MIKVGICDTTFARYDMGGAAIDELKKHTAGIKIIRRTVPGIKDLPVACKKLIEEEGCEMVMALGMPGPEEKDKVCAHEASTGLIQAQLMTNTHILEVFVHEDEEDDPEELKVLADNRAREHAQNLIMMLFKPDRLTREAGMGLREGKPDAGPL | not soluble
MILDSQLAQQIVDRTMAIIGYNINVMNQAGVIIGSGEKNRIGQVHDGAILALKHGDSVELTAESCVALKGVKPGINMVLRNQQQVVGIVGITGEPKDIRDFANLVKMSAEMIIEQAALVEQLQWDRRHREEFISAWIHNTLSAAELDAWAARLSIDLSKPRVAVVIAFRQPKSGQSLDQIRQVVELLEHPERDNLVAVVSMQEIVVLKPCRTPEHWTSEYESLRIDKLMARLKAYDITGYDIALGQLFINPNAIHLSYQSAKQVLRIGQVRQPEKQKHLYEELRLPVLLLPLNEGWQGEQWRRVMQELQTQDKSGQLVKTLKGLFAANGNLNLCAQQLFIHRNTLRYRLEKITEITGIETNSLLGLAELYIAYQLTSYD | soluble
